Molecular target: T1, peptide of SEQ ID NO: 1
T1 chain: GKCSTRGRKCCRRKK

B1: HDAC5 in RAW 264.7 cells (protein)
chain: MNSPNESDGMSGREPSLGILPRTPLHSIPVAVEVKPVLPGAMPSSMGGGGGGSPSPVELRGALAGPMDPALREQQLQQELLVLKQQQQLQKQLLFAEFQKQHDHLTRQHEVQLQKHLKQQQEMLAAKRQQELEQQRQREQQRQEELEKQRLEQQLLILRNKEKSKESAIASTEVKLRLQEFLLSKSKEPTPGGLNHSLPQHPKCWGAHHASLDQSSPPQSGPPGTPPSYKLPLLGPYDSRDDFPLRKTASEPNLKVRSRLKQKVAERRSSPLLRRKDGTVISTFKKRAVEITGTGPGVSSVCNSAPGSGPSSPNSSHSTIAENGFTGSVPNIPTEMIPQHRALPLDSSPNQFSLYTSPSLPNISLGLQATVTVTNSHLTASPKLSTQQEAERQALQSLRQGGTLTGKFMSTSSIPGCLLGVALEGDTSPHGHASLLQHVCSWTGRQQSTLIAVPLHGQSPLVTGERVATSMRTVGKLPRHRPLSRTQSSPLPQSPQALQQLVMQQQHQQFLEKQKQQQMQLGKILTKTGELSRQPTTHPEETEEELTEQQEALLGEGALTIPREGSTESESTQEDLEEEEEEEEEEEEDCIQVKDEDGESGPDEGPDLEESSAGYKKLFADAQQLQPLQVYQAPLSLATVPHQALGRTQSSPAAPGSMKSPTDQPTVVKHLFTTGVVYDTFMLKHQCMCGNTHVHPEHAGRIQSIWSRLQETGLLGKCERIRGRKATLDEIQTVHSEYHTLLYGTSPLNRQKLDSKKLLGPISQKMYAMLPCGGIGVDSDTVWNEMHSSSAVRMAVGCLVELAFKVAAGELKNGFAIIRPPGHHAEESTAMGFCFFNSVAITAKLLQQKLSVGKVLIVDWDIHHGNGTQQAFYNDPSVLYISLHRYDNGNFFPGSGAPEEVGGGPGVGYNVNVAWTGGVDPPIGDVEYLTAFRTVVMPIAQEFSPDVVLVSAGFDAVEGHLSPLGGYSVTARCFGHLTRQLMTLAGGRVVLALEGGHDLTAICDASEACVSALLSVELQPLDEAVLQQKPSVNAVATLEKVIEIQSKHWSCVQRFAAGLGCSLREAQTGEKEEAETVSAMALLSVGAEQAQAVATQEHSPRPAEEPMEQEPAL
- Phosphorylation ratio (Phospho explorer antibody microarray, peptide + LPS against LPS alone): phosphorylation of HDAC5 was inhibited the most (0.278)

From US20240166688
